Measurements taken from the DeepSol protein solubility set.

Test: soluble on expression in E. coli; label from the status in PepcDB or PDB records

| Sequence | soluble on expression in E. coli |
| --- | --- |
| MSLSALLNYKLEGSGETVVLIHGLFGSLDNLGLLARDLKNDHQVLSLDLRNHGLSFHSDEHNYALMAQDVNQLLEHLNLTSVVVIGHSMGGKVAMKLADIAAEKVRQLVVLDMSPVAYSQRRHDNVFAGLEAVLVQKPTSRSEVMAILAQHIEQEGVRQFLGKSLMSEQNVMTWRFNVAALKAHYAEILGWDIIAKCRIPTLFIKGADSDYLTTQHQPMVQAQFSQAKAHVIANTGHWLHAEKPAEVIRAIRKFIDVPVEGHHHHHH | soluble |
| MMLNAWHLPVPPFVKQSKDQLLITLWLTGEDPPQRIMLRTEHDNEEMSVPMHKQRSQPQPGVTAWRAAIDLSSGQPRRRYSFKLLWHDRQRWFTPQGFSRMPPARLEQFAVDVPDIGPQWAADQIFYQIFPDRFARSLPREAEQDHVYYHHAAGQEIILRDWDEPVTAQAGGSTFYGGDLDGISEKLPYLKKLGVTALYLNPVFKAPSVHKYDTEDYRHVDPQFGGDGALLRLRHNTQQLGMRLVLDGVFNHSGDSHAWFDRHNRGTGGACHNPESPWRDWYSFSDDGTALDWLGYASLPKLDYQSESLVNEIYRGEDSIVRHWLKAPWNMDGWRLDVVHMLGEAGGARNNMQHVAGITEAAKETQPEAYIVGEHFGDARQWLQADVEDAAMNYRGFTFPLWGFLANTDISYDPQQIDAQTCMAWMDNYRAGLSHQQQLRMFNQLDSHDTARFKTLLGRDIARLPLAVVWLFTWPGVPCIYYGDEVGLDGKNDPFCRKPFPWQVEKQDTALFALYQRMIALRKKSQALRHGGCQVLYAEDNVVVFVRVLNQQRVLVAINRGEACEVVLPASPFLNAVQWQCKEGHGQLTDGILALPAISATVWMN | soluble |
| HHHHHHGSGAVKLSVSYRNGTLFIMVMHIKDLVTEDGADPNPYVKTYLLPDTHKTSKRKTKISRKTRNPTFNEMLVYSGYSKETLRQRELQLSVLSAESLRENFFLGGITLPLKDFNLSKETVKWYQLTAATYL | soluble |
| TQVFDLEGYGAISRAMGGTSSSYYTGNAALISNPATLSFAPDGNQFELGLDVVTTDIKVHDSHGAEAKSSTRSNNRGPYVGPQLSYVAQLDDWRFGAGLFVSSGLGTEYGSKSFLSQTENGIQTSFDNSSRLIVLRAPIGFSYQATSKLTFGASVDLVWTSLNLELLLPSSQVGALTAQGNLSGGLVPSLAGFVGTGGAAHFSLSRNSTAGGAVDAVGWGGRLGLTYKLTDNTVLGAMYNFKTSVGDLEGKATLSAISGDGAVLPLDGDIRVKNFEMPASLTLGLAHQFNERWVVAADIKRAYWGDVMDSMNVAFISQLGGIDVALPHRYQDITVASIGTAYKYNNDLTLRAGYSYAQQALDSELILPVIPAYLKRHVTFGGEYDFDKDSRINLAISFGLRERVQTPSYLAGTEMLRQSHSQINAVVSYSKNFHHHHHH | soluble |
| MEALAMAGVDYQEWGLSIEEWELQESVVPLHLLADDFKEEEQEEDHQDNDDDDRVLDGLAVKQSVTRDIRASVGKFIEQSMSHMIVHLKQLKFLTLLLENFLFTHVLDFLL | not soluble |
| GPGSMKVSSFIVQLRPGFFRLMIHAKPGARSTALAAQPQALDEALEVRLAAPPVDGKANTELVEFMQTLLEQQLATLRITQKQHLRKSGCEDGEDEVYTYEHYAKKKKSKNNKRMNEDSKSGEAKVEYPDDKVRVSLVSGLTSRNKVLEVTFPGTEEDLLAVLKSADFS | soluble |
| MSLKKAKLIFKDNTPFSLDFDDFYFNSKDGLNESKFVYTHSFEWKNQENFIIAESGFGIGLNFFLTLKRLLETTPSKRPKKLFYISVEAFYIEKEQLREIYQKLEFYEEFKELLEQFLKFYPKAKEGIYRFYFEDCFLDLVFEDIAVLKELDFKADVWYLDGFSPNKNLQMFDENLIFEVARLSKKNTQICTFSSASFLQKNLKKYGFRVEKTKGFRKREMIKAYLENELEFKDKEAYFSRTEGHHHHHH | soluble |
| MLFLPILILNLLIITHAIDIIPREVLFQDPKYSSVSLSPDAKQVGYVAPDENGIRNVFTRCSSCSYSRQVTFETEHPILNYVWTAIPDVILFTQDNHGDENTRIYKKNISATAIAADKTQRVVISEKPMVKAMILSNNLISETVLIGMNDENPALHNIYAFNCQTDELKLVLQNRRFSIFFFDNDLNVRLASEEGPDGEMIYYRPRSNEGARTTEQNTWVEYLRIQHDDKAITMPITFDKSNNFMYWIMGDGSDLGNLVVFPFEDPQQKEILYTAQRAQIGNVLIHPTDKTLLAVTEVYHKPELFVANETFMEDLQYLVNMKPSGSMNIVSMSIDMSTWLVTYSSSDEPYDIYLYRRWNKKAELFMSTRPELKKYTLNKQIGFDFRARDEMTIQAYLSLPPQAPLLKSSQVPDGDRPYANLGMIPAVPQKMIVLVHGGPKARDHYGFSPMNAWLTNRGYSVLQVNFRGSTGFGKRLTNAGNGEWGRKMHFDILDAVEFAVSKGIANRSEVAVMGGSYGGYETLVALTFTPQTFACGVDIVGPSNLISLVQAIPPYWLGFRKDLIKMVGADISDEEGRQSLQSRSPLFFADRVTKPIMIIQGANDPRVKQAESDQFVAALEKKHIPVTYLLYPDEGHGVRKPQNSMEQHGHIETFLQQCLGGETQPFQPGQYNSSAIIKKIGIEGAAIARQNLQIAQNQFAQQLPRGPVAPSIFYRPPVRAQRVMLAPNQNVMNRIFPVQG | soluble |
| MGSDKIHHHHHHMDEFDYVRRKLIERILHLTEKQPVVRPLPGLTVGRRESPTEPSTYILPPSICIAVQGAKRVLIGEEYYVYDVENFLLNSFDVPVVAQVIEASKEKPYIGMTWEIDMEILMEIVVEQKLNTRPITSSRGTSLGKVTHQLLDAFRRMLELLDEPEHISALLPVIKKEIIYRLLVSEQGPRLIQIALSGKNDVITALNYLKEHFNESVNMKRLAEMVGMSVSTFYQNFKILTGMTPLQYQKKLRLCEARKLLMAGSDVTTAAYQVGYESLSQFSREYKRFFGVSPSQDAKKLKEEPYTRILY | not soluble |
| MRLTIPILKEGGMLMKFGFIGAGKVGFSLGKYLADNNQNVVGYYSIINEEAIEAAKFTGSKYYENMEQLVEDSEVLFLTVPDGQIENLWNQLKSSHKNWMAKYNKPLLNNKIVCHCSGALSSDIFSSIAEYESFGYSIHPLFAVSNRYESYKELSDSYFTIEGNIEKINKMKELFESFGNTVCIISKDDKIKYHGAAAIASNLVVGLIGLSEELLKQCGFDEKSAHNALAPIIKGNVKHIVEEGVVEALTGPIERCDVSTVRKHMSVFDKKTNEIYKAVSKEVLEIAKIKNKDRDYSKMEEVLQ | not soluble |
| MAHHHHHHMCVRTWQKCPGLVSVKHRCIGGTLTNDGLRTEQYSHAPGPVRYFFLCLYDALLAHQQRLDQYWLNPLYQLNVHSFPFVYLYIVHFNTKIIFSFSFKANKNFFPLRLTTGKNCRKTKSTCRQPPTPNIDDRSSL | not soluble |
| AIADNGDWGYMMTDPVTLNVGGHLYTTSLTTLTRYPDSMLGAMFGGDFPTARDPQGNYFIDRDGPLFRYVLNFLRTSELTLPLDFKEFDLLRKEADFYQIEPLIQCLNDPKPLYPMDTFEEVVELSSTRKLSKYSNPVAVIITQLTITTKVHSLLEGISNYFTKWNKHMMDTRDCQVSFTFGPCDYHQEVSLRVHLMEYITKQGFTIRNTRVHHMSERANENTVEHNWTFCRLARKTDD | soluble |
| GSSAKRKQEEKHLKMLRDMTGLPHNRKCFDCDQRGPTYVNMTVGSFVCTSCSGSLRGLNPPHRVKSISMTTFTQQEIEFLQKHGNEVCKQIWLGLFDDRSSAIPDFRDPQKVKEFLQEKYEKKRWYVPPEQAKVVASVHA | soluble |
| MDRNSLSNSLKTCYKYLNQTSRSFAAVIQALDGEMRNAVCIFYLVLRALDTLEDDMTISVEKKVPLLHNFHSFLYQPDWRFMESKEKDRQVLEDFPTISLEFRNLAEKYQTVIADICRRMGIGMAEFLDKHVTSEQEWDKYCHYVAGLVGIGLSRLFSASEFEDPLVGEDTERANSMGLFLQKTNIIRDYLEDQQGGREFWPQEVWSRYVKKLGDFAKPENIDLAVQCLNELITNALHHIPDVITYLSRLRNQSVFNFCAIPQVMAIATLAACYNNQQVFKGAVKIRKGQAVTLMMDATNMPAVKAIIYQYMEEIYHRIPDSDPSSSKTRQIISTIRTQN | soluble |
| MKKDLISVVMSAYNSEKFISDSISSILDQTYENWELIIINDASSDNTLKIVNQFSEKDPRIKVIDNENNLGLTISLNIGINNSKGEFIARLDSDDFAEPSRLEKELDHLHAYPEAGLVGSGAHLINSSGNKIGSMNVMSQPYFVNRFLINLNPFIHSSIMVRKKALDNVGSYREKFRYSQDYDLILRLSDKYKLSNIALPLIRWRVSDSSVTMQHHTLQRIYADIAREFAIERRNSGHDSYESTEFDTLIHEMRIRNQGRYLCDHGVYDLLFNKKYKEGCSELIKGISKGGFPYNSFYRGITQVISKVNIQLEHHHHHH | not soluble |
